Our source for the Km values is paper PMC9355956, “Structure of human spermine oxidase in complex with a highly selective allosteric inhibitor” (Communications Biology, 2022).

Several values for one entry are separate records, joined by “and”; a condition that tells them apart may be missing. Equal entries are not always repeated.

Substrate in the data set: NCCCNCCCCNCCCN
Put plainly: purified protein, by the assay type. The note with it: other: substrate, 2.5 nM hSMOX; 11.3 °C.

B1: hSMOX (Homo sapiens) (protein)
chain: MQSCESSGDSADDPLSRGLRRRGQPRVVVIGAGLAGLAAAKALLEQGFTDVTVLEASSHIGGRVQSVKLGHATFELGATWIHGSHGNPIYHLAEANGLLEETTDGERSVGRISLYSKNGVACYLTNHGRRIPKDVVEEFSDLYNEVYNLTQEFFRHDKPVNAESQNSVGVFTREEVRNRIRNDPDDPEATKRLKLAMIQQYLKVESCESSSHSMDEVSLSAFGEWTEIPGAHHIIPSGFMRVVELLAEGIPAHVIQLGKPVRCIHWDQASARPRGPEIEPRGEGDHNHDTGEGGQGGEEPRGGRWDEDEQWSVVVECEDCELIPADHVIVTVSLGVLKRQYTSFFRPGLPTEKVAAIHRLGIGTTDKIFLEFEEPFWGPECNSLQFVWEDEAESHTLTYPPELWYRKICGFDVLYPPERYGHVLSGWICGEEALVMEKCDDEAVAEICTEMLRQFTGNPNIPKPRRILRSAWGSNPYFRGSYSYTQVGSSGADVEKLAKPLPYTESSKTAPMQVLFSGEATHRKYYSTTHGALLSGQREAARLIEMYRDLFQQGT
On to B1, for which the Km – broadly, the concentration of substrate that gives half-maximal velocity – was 34 µM and 33.9 ± 2.7 µM.
